Laboratory results taken from the supplement of paper PMC5998384.

How the values were obtained:
HeLa Kyoto [1] = test: solubility change mitosis vs G1/S (difference of NP-40 vs SDS log2 ratios) (log2 ratio difference); higher = more soluble in mitosis
HeLa Kyoto [2] = test: thermal stability score vs G1/S (z-score of summed log2 fold changes over temperatures); higher = more thermally stable than in G1/S
HeLa Kyoto [3] = test: melting temperature (median over replicates), in situ; higher = more thermally stable
HeLa Kyoto [4] = test: solubility in G1/S (NP-40 vs SDS abundance) (log2 ratio); higher = more soluble; conditions: cell cycle stage: G1/S
[5] = cell cycle stage: early G1 (4.5 h after nocodazole release)
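Wherever melting temperature (median over replicates), in situ is given: HeLa Kyoto cells synchronized by double thymidine or nocodazole block, proteins quantified by TMT10plex mass spectrometry, three independent biological replicates.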
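Wherever solubility change mitosis vs G1/S (difference of NP-40 vs SDS log2 ratios) is given: synchronized HeLa Kyoto cells (double thymidine block for G1/S, nocodazole release for mitosis), protein amounts in NP-40 versus SDS lysates quantified by mass spectrometry, three biological replicates.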
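Wherever solubility in G1/S (NP-40 vs SDS abundance) is given: HeLa Kyoto cells arrested at G1/S by double thymidine block, proteins quantified by TMT10plex mass spectrometry in mild NP-40 versus SDS extracts, three biological replicates.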
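Wherever thermal stability score vs G1/S (z-score of summed log2 fold changes over temperatures) is given: synchronized HeLa Kyoto cells, proteins quantified by TMT10plex mass spectrometry, three biological replicates, mitosis taken 0.5 h after nocodazole release, G1/S directly after double thymidine block.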

Sequence	solubility change mitosis (log2) (HeLa Kyoto [1])	thermal stability score (HeLa Kyoto [2]; [5])	thermal stability score (HeLa Kyoto [2]; cell cycle stage: mitosis)	melting temperature (HeLa Kyoto [3]; cell cycle stage: G1/S)	melting temperature (HeLa Kyoto [3]; cell cycle stage: mitosis)	solubility in G1/S (log2) (HeLa Kyoto [4])
MESYHKPDQQKLQALKDTANRLRISSIQATTAAGSGHPTSCCSAAEIMAVLFFHTMRYKSQDPRNPHNDRFVLSKGHAAPILYAVWAEAGFLAEAELLNLRKISSDLDGHPVPKQAFTDVATGSLGQGLGAACGMAYTGKYFDKASYRVYCLLGDGELSEGSVWEAMAFASIYKLDNLVAILDINRLGQSDPAPLQHQMDIYQKRCEAFGWHAIIVDGHSVEELCKAFGQAKHQPTAIIAKTFKGRGITGVEDKESWHGKPLPKNMAEQIIQEIYSQIQSKKKILATPPQEDAPSVDIANIRMPSLPSYKVGDKIATRKAYGQALAKLGHASDRIIALDGDTKNSTFSEIFKKEHPDRFIECYIAEQNMVSIAVGCATRNRTVPFCSTFAAFFTRAFDQIRMAAISESNINLCGSHCGVSIGEDGPSQMALEDLAMFRSVPTSTVFYPSDGVATEKAVELAANTKGICFIRTSRPENAIIYNNNEDFQVGQAKVVLKSKDDQVTVIGAGVTLHEALAAAELLKKEKINIRVLDPFTIKPLDRKLILDSARATKGRILTVEDHYYEGGIGEAVSSAVVGEPGITVTHLAVNRVPRSGKPAELLKMFGIDRDAIAQAVRGLITKA [TKT]	-0.0914	-3.36	-2.81	61.8 °C	60.1 °C	0.148
METESGNQEKVMEEESTEKKKEVEKKKRSRVKQVLADIAKQVDFWFGDANLHKDRFLREQIEKSRDGYVDISLLVSFNKMKKLTTDGKLIARALRSSAVVELDLEGTRIRRKKPLGERPKDEDERTVYVELLPKNVNHSWIERVFGKCGNVVYISIPHYKSTGDPKGFAFVEFETKEQAAKAIEFLNNPPEEAPRKPGIFPKTVKNKPIPALRVVEEKKKKKKKKGRMKKEDNIQAKEENMDTSNTSISKMKRSRPTSEGSDIESTEPQKQCSKKKKKRDRVEASSLPEVRTGKRKRSSSEDAESLAPRSKVKKIIQKDIIKEASEASKENRDIEISTEEEKDTGDLKDSSLLKTKRKHKKKHKERHKMGEEVIPLRVLSKSEWMDLKKEYLALQKASMASLKKTISQIKSESEMETDSGVPQNTGMKNEKTANREECRTQEKVNATGPQFVSGVIVKIISTEPLPGRKQVRDTLAAISEVLYVDLLEGDTECHARFKTPEDAQAVINAYTEINKKHCWKLEILSGDHEQRYWQKILVDRQAKLNQPREKKRGTEKLITKAEKIRLAKTQQASKHIRFSEYD [LARP7]	0.194	0.456	1.1	48.8 °C	50.1 °C	-0.53
METFDPTELPELLKLYYRRLFPYSQYYRWLNYGGVIKNYFQHREFSFTLKDDIYIRYQSFNNQSDLEKEMQKMNPYKIDIGAVYSHRPNQHNTVKLGAFQAQEKELVFDIDMTDYDDVRRCCSSADICPKCWTLMTMAIRIIDRALKEDFGFKHRLWVYSGRRGVHCWVCDESVRKLSSAVRSGIVEYLSLVKGGQDVKKKVHLSEKIHPFIRKSINIIKKYFEEYALVNQDILENKESWDKILALVPETIHDELQQSFQKSHNSLQRWEHLKKVASRYQNNIKNDKYGPWLEWEIMLQYCFPRLDINVSKGINHLLKSPFSVHPKTGRISVPIDLQKVDQFDPFTVPTISFICRELDAISTNEEEKEENEAESDVKHRTRDYKKTSLAPYVKVFEHFLENLDKSRKGELLKKSDLQKDF [PRIM1]	-0.247	0.672	1.37	48.8 °C	49.6 °C	-0.144
METPAAAAPAGSLFPSFLLLACGTLVAALLGAAHRLGLFYQLLHKVDKASVRHGGENVAAVLRAHGVRFIFTLVGGHISPLLVACEKLGIRVVDTRHEVTAVFAADAMARLSGTVGVAAVTAGPGLTNTVTAVKNAQMAQSPILLLGGAASTLLQNRGALQAVDQLSLFRPLCKFCVSVRRVRDIVPTLRAAMAAAQSGTPGPVFVELPVDVLYPYFMVQKEMVPAKPPKGLVGRVVSWYLENYLANLFAGAWEPQPEGPLPLDIPQASPQQVQRCVEILSRAKRPLMVLGSQALLTPTSADKLRAAVETLGVPCFLGGMARGLLGRNHPLHIRENRSAALKKADVIVLAGTVCDFRLSYGRVLSHSSKIIIVNRNREEMLLNSDIFWKPQEAVQGDVGSFVLKLVEGLQGQTWAPDWVEELREADRQKEQTFREKAAMPVAQHLNPVQVLQLVEETLPDNSILVVDGGDFVGTAAHLVQPRGPLRWLDPGAFGTLGVGAGFALGAKLCRPDAEVWCLFGDGAFGYSLIEFDTFVRHKIPVMALVGNDAGWTQISREQVPSLGSNVACGLAYTDYHKAAMGLGARGLLLSRENEDQVVKVLHDAQQQCRDGHPVVVNILIGRTDFRDGSIAV [ILVBL]	-0.172	0.852	-0.0354	53.2 °C	53.7 °C	-0.101
METVQLRNPPRRQLKKLDEDSLTKQPEEVFDVLEKLGEGSYGSVYKAIHKETGQIVAIKQVPVESDLQEIIKEISIMQQCDSPHVVKYYGSYFKNTDLWIVMEYCGAGSVSDIIRLRNKTLTEDEIATILQSTLKGLEYLHFMRKIHRDIKAGNILLNTEGHAKLADFGVAGQLTDTMAKRNTVIGTPFWMAPEVIQEIGYNCVADIWSLGITAIEMAEGKPPYADIHPMRAIFMIPTNPPPTFRKPELWSDNFTDFVKQCLVKSPEQRATATQLLQHPFVRSAKGVSILRDLINEAMDVKLKRQESQQREVDQDDEENSEEDEMDSGTMVRAVGDEMGTVRVASTMTDGANTMIEHDDTLPSQLGTMVINAEDEEEEGTMKRRDETMQPAKPSFLEYFEQKEKENQINSFGKSVPGPLKNSSDWKIPQDGDYEFLKSWTVEDLQKRLLALDPMMEQEIEEIRQKYQSKRQPILDAIEAKKRRQQNF [STK4]	-0.0655	0.936	0.0765	51.8 °C	51.5 °C	0.283
MEVAANCSLRVKRPLLDPRFEGYKLSLEPLPCYQLELDAAVAEVKLRDDQYTLEHMHAFGMYNYLHCDSWYQDSVYYIDTLGRIMNLTVMLDTALGKPREVFRLPTDLTACDNRLCASIHFSSSTWVTLSDGTGRLYVIGTGERGNSASEKWEIMFNEELGDPFIIIHSISLLNAEEHSIATLLLRIEKEELDMKGSGFYVSLEWVTISKKNQDNKKYEIIKRDILRGKSVPHYAAIEPDGNGLMIVSYKSLTFVQAGQDLEENMDEDISEKIKEPLYYWQQTEDDLTVTIRLPEDSTKEDIQIQFLPDHINIVLKDHQFLEGKLYSSIDHESSTWIIKESNSLEISLIKKNEGLTWPELVIGDKQGELIRDSAQCAAIAERLMHLTSEELNPNPDKEKPPCNAQELEECDIFFEESSSLCRFDGNTLKTTHVVNLGSNQYLFSVIVDPKEMPCFCLRHDVDALLWQPHSSKQDDMWEHIATFNALGYVQASKRDKKFFACAPNYSYAALCECLRRVFIYRQPAPMSTVLYNRKEGRQVGQVAKQQVASLETNDPILGFQATNERLFVLTTKNLFLIKVNTEN [NUDCD1]	-0.234	0.569	0.543	51.5 °C	52.4 °C	-0.0356
MEVKGKKQFTGKSTKTAQEKNRFHKNSDSGSSKTFPTRKVAKEGGPKVTSRNFEKSITKLGKKGVKQFKNKQQGDKSPKNKFQPANKFNKKRKFQPDGRSDESAAKKPKWDDFKKKKKELKQSRQLSDKTNYDIVVRAKQMWEILRRKDCDKEKRVKLMSDLQKLIQGKIKTIAFAHDSTRVIQCYIQYGNEEQRKQAFEELRDDLVELSKAKYSRNIVKKFLMYGSKPQIAEIIRSFKGHVRKMLRHAEASAIVEYAYNDKAILEQRNMLTEELYGNTFQLYKSADHRTLDKVLEVQPEKLELIMDEMKQILTPMAQKEAVIKHSLVHKVFLDFFTYAPPKLRSEMIEAIREAVVYLAHTHDGARVAMHCLWHGTPKDRKVIVKTMKTYVEKVANGQYSHLVLLAAFDCIDDTKLVKQIIISEIISSLPSIVNDKYGRKVLLYLLSPRDPAHTVREIIEVLQKGDGNAHSKKDTEVRRRELLESISPALLSYLQEHAQEVVLDKSACVLVSDILGSATGDVQPTMNAIASLAATGLHPGGKDGELHIAEHPAGHLVLKWLIEQDKKMKENGREGCFAKTLVEHVGMKNLKSWASVNRGAIILSSLLQSCDLEVANKVKAALKSLIPTLEKTKSTSKGIEILLEKLST [PUM3]	0.758	1.46	3.65	46.6 °C	50 °C	-1.05
MEVKPPPGRPQPDSGRRRRRRGEEGHDPKEPEQLRKLFIGGLSFETTDDSLREHFEKWGTLTDCVVMRDPQTKRSRGFGFVTYSCVEEVDAAMCARPHKVDGRVVEPKRAVSREDSVKPGAHLTVKKIFVGGIKEDTEEYNLRDYFEKYGKIETIEVMEDRQSGKKRGFAFVTFDDHDTVDKIVVQKYHTINGHNCEVKKALSKQEMQSAGSQRGRGGGSGNFMGRGGNFGGGGGNFGRGGNFGGRGGYGGGGGGSRGSYGGGDGGYNGFGGDGGNYGGGPGYSSRGGYGGGGPGYGNQGGGYGGGGGYDGYNEGGNFGGGNYGGGGNYNDFGNYSGQQQSNYGPMKGGSFGGRSSGSPYGGGYGSGGGSGGYGSRRF [HNRNPA3]	0.411	2.6	4.71	47.8 °C	49.3 °C	-0.252
MEVSGPEDDPFLSQLHQVQCPVCQQMMPAAHINSHLDRCLLLHPAGHAEPAAGSHRAGERAKGPSPPGAKRRRLSESSALKQPATPTAAESSEGEGEEGDDGGETESRESYDAPPTPSGARLIPDFPVARSSSPGRKGSGKRPAAAAAAGSASPRSWDEAEAQEEEEAVGDGDGDGDADADGEDDPGHWDADAAEAATAFGASGGGRPHPRALAAEEIRQMLQGKPLADTMRPDTLQDYFGQSKAVGQDTLLRSLLETNEIPSLILWGPPGCGKTTLAHIIASNSKKHSIRFVTLSATNAKTNDVRDVIKQAQNEKSFFKRKTILFIDEIHRFNKSQQDTFLPHVECGTITLIGATTENPSFQVNAALLSRCRVIVLEKLPVEAMVTILMRAINSLGIHVLDSSRPTDPLSHSSNSSSEPAMFIEDKAVDTLAYLSDGDARAGLNGLQLAVLARLSSRKMFCKKSGQSYSPSRVLITENDVKEGLQRSHILYDRAGEEHYNCISALHKSMRGSDQNASLYWLARMLEGGEDPLYVARRLVRFASEDIGLADPSALTQAVAAYQGCHFIGMPECEVLLAQCVVYFARAPKSIEVYSAYNNVKACLRNHQGPLPPVPLHLRNAPTRLMKDLGYGKGYKYNPMYSEPVDQEYLPEELRGVDFFKQRRC [WRNIP1]	-0.0694	2.61	5.06	47.5 °C	49.3 °C	0.228
MFCVTPPELETKMNITKGGLVLFSANSNSSCMELSKKIAERLGVEMGKVQVYQEPNRETRVQIQESVRGKDVFIIQTVSKDVNTTIMELLIMVYACKTSCAKSIIGVIPYFPYSKQCKMRKRGSIVSKLLASMMCKAGLTHLITMDLHQKEIQGFFNIPVDNLRASPFLLQYIQEEIPDYRNAVIVAKSPASAKRAQSFAERLRLGIAVIHGEAQDAESDLVDGRHSPPMVRSVAAIHPSLEIPMLIPKEKPPITVVGDVGGRIAIIVDDIIDDVDSFLAAAETLKERGAYKIFVMATHGLLSSDAPRRIEESAIDEVVVTNTIPHEVQKLQCPKIKTVDISMILSEAIRRIHNGESMSYLFRNIGLDD [PRPSAP2]	-0.121	-0.303	-0.671	57.5 °C	57.4 °C	0.117
